Among the data in article PMC4374980 are stoichiometry N values, retold here.

The target of this test is cysteine-free green-absorbing Proteorhodopsin. In words: cross-linking.

With “cysteine-free green-absorbing Proteorhodopsin (natural protein)”, the stoichiometry N amounted to 6.

What is called stoichiometry N is a count of units in the complex or per binding partner.
